The numbers were not newly measured in paper PMC2757091, which cites them from elsewhere.

In general, Kd refers to the concentration at which binding is half-saturated.

Series [1] concerns the target Noggin (UniProt Q13253).
Series [2] addresses Cerberus (UniProt O95813).
The target in series [3] is Chordin (UniProt Q9H2X0).
Chordin, sequence (Q9H2X0 27-955): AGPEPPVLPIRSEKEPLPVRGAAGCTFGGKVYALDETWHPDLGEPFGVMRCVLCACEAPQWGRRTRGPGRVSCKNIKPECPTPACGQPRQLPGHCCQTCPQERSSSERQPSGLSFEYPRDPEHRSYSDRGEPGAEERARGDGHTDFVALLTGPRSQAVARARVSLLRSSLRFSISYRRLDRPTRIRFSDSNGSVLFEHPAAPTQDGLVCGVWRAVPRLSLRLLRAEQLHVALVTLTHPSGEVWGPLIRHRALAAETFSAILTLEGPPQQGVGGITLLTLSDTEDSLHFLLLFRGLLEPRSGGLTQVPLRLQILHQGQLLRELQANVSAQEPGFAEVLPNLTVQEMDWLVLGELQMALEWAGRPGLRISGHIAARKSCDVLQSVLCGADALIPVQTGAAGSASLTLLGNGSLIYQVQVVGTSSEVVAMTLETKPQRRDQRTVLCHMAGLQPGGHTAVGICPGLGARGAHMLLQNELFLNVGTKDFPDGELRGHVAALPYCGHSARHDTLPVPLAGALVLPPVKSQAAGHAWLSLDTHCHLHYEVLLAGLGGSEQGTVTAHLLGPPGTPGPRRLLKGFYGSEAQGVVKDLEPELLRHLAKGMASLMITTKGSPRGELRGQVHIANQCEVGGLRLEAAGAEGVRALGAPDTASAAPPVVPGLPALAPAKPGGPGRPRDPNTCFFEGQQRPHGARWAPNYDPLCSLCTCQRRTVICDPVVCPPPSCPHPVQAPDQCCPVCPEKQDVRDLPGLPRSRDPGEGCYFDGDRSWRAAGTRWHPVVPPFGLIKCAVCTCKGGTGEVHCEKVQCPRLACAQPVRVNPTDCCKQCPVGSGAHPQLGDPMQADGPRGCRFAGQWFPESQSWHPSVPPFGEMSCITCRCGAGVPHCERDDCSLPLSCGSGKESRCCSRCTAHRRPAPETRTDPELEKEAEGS

BMP4, sequence (P12644 293-408): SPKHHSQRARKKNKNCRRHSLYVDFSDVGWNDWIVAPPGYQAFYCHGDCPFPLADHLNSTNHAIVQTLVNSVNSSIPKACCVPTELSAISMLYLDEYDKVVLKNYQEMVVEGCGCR
Noggin, sequence (Q13253 28-232): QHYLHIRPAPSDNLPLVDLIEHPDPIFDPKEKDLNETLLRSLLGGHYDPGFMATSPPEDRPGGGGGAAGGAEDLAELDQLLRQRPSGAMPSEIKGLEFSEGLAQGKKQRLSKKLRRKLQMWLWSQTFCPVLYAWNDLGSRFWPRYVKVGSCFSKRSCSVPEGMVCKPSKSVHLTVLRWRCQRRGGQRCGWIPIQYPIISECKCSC
Cerberus, sequence (O95813 18-267): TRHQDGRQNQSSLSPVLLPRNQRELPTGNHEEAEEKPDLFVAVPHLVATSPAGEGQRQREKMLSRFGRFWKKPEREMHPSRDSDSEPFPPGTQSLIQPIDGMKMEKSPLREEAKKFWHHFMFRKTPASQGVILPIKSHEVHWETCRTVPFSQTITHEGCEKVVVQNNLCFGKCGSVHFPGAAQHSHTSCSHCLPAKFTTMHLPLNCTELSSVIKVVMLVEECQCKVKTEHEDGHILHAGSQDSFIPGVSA

In the case of BMP4 (from UniProt P12644), the Kd in series [1] is 0.02 nM; in series [2], 0.6 nM; in series [3] it was 0.2 nM.
